{"source": "paper PMC6133022", "origin": "cited, not measured here", "target": "alpha-bungarotoxin (Bungarus multicinctus) (UniProt P60615)", "sequence (P60615 22-95)": "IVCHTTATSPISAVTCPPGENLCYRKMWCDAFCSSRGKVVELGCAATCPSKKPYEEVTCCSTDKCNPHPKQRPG"}
{"substance": "alpha7-nAChR (from UniProt P36544)", "values": [{"measurement": "Kd", "value": 94, "unit": "pM"}]}
